Source: publication PMC10090120, “Cryo-EM structures of mitochondrial ABC transporter ABCB10 in apo and biliverdin-bound form” (Nature Communications, 2023)

Molecular target: the molecule itself
Assay: cryo-EM structure; ABCB10 E659Q at ~4 mg/mL in 50 mM HEPES pH 7.5, 150 mM NaCl, 0.005% GDN, 0.0005% CHS, incubated with 1 mM biliverdin for 30 min and vitrified; BV-free (apo) and BV-bound maps from a single data set; C2 symmetry

B1: human ABCB10 (residues A152-A738) E659Q mutant (domain or fragment, UniProt Q9NRK6 152-738, looked up)
chain: AGLPEARKLLGLAYPERRRLAAAVGFLTMSSVISMSAPFFLGKIIDVIYTNPTVDYSDNLTRLCLGLSAVFLCGAAANAIRVYLMQTSGQRIVNRLRTSLFSSILRQEVAFFDKTRTGELINRLSSDTALLGRSVTENLSDGLRAGAQASVGISMMFFVSPNLATFVLSVVPPVSIIAVIYGRYLRKLTKVTQDSLAQATQLAEERIGNVRTVRAFGKEMTEIEKYASKVDHVMQLARKEAFARAGFFGATGLSGNLIVLSVLYKGGLLMGSAHMTVGELSSFLMYAFWVGISIGGLSSFYSELMKGLGAGGRLWELLEREPKLPFNEGVILNEKSFQGALEFKNVHFAYPARPEVPIFQDFSLSIPSGSVTALVGPSGSGKSTVLSLLLRLYDPASGTISLDGHDIRQLNPVWLRSKIGTVSQEPILFSCSIAENIAYGADDPSSVTAEEIQRVAEVANAVAFIRNFPQGFNTVVGEKGVLLSGGQKQRIAIARALLKNPKILLLDQATSALDAENEYLVQEALDRLMDGRTVLVIAHRLSTIKNANMVAVLDQGKITEYGKHEELLSKPNGIYRKLMNKQSFISA
notes: E659Q in the Walker-B motif; The vector adds a C-terminal TEV protease site before the FLAG and 10xHis tags; no cleavage is described; The model of ABCB10-apo covers residues 156-724 (528-532 missing), that of ABCB10-BV residues 154-724 (629-631 missing); also called ABCB10 E659Q; ABCB10-apo
stoichiometry N: 2
